# T1: ProQ NTD (FinO domain) (Escherichia coli, UniProt P45577 1-130)
# T1 sequence: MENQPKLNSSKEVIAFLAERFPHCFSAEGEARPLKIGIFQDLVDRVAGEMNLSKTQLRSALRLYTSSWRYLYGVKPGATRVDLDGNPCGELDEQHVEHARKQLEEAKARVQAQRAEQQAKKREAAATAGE
# T2: ProQ full-length (Escherichia coli, UniProt P45577 1-232)
# T2 sequence: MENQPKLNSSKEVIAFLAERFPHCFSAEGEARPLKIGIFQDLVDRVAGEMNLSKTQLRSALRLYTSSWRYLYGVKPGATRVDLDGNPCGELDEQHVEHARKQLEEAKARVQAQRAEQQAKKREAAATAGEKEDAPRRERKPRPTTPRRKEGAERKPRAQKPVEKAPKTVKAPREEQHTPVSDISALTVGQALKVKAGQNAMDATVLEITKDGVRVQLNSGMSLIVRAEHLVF
# Assays:
# [1] = biological target: T1, ProQ NTD (FinO domain); test: EMSA
# [2] = biological target: Hfq (Escherichia coli, UniProt P0A6X3 1-102); test: filter binding
# Chain of Hfq (P0A6X3 whole entry): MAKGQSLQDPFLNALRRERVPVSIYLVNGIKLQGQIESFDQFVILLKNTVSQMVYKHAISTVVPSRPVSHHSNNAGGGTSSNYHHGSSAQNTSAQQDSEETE
# [3] = biological target: T2, ProQ full-length; test: EMSA
binder,measurement,setting,value
infA-3'-AtoU (structured_RNA) RNA: GUCGCUGAUUGUUUUACCGCCUGAUGGGCGAAGAGAAAGAACGAGUUUUUGGUCGGUUUAACCGGCCUUUUUAU,Kd,[1],0.032 ± 0.013 µM
same,Kd,[2],0.0012 ± 0.00055 µM
hupA-5'-mut (structured_RNA) RNA: GCGAAAAAAAGUGGCUAUCGGUGCGUGUAUGCAGGAGAGUGCUAUUCUGGCAUUUCCGUCGCACUCGAUGCUUAGCAAGCGAUAAACACAUCGUAAGGAUAACUUACGUUUU,Kd,[1],0.016 ± 0.0047 µM
same,Kd,[3],0.014 ± 0.008 µM
malM-3'-bulge (structured_RNA) RNA: GCUUUAUCAGCAGUGUAAAAGGCAAGGGGUAAUUACGCCCCACAGUGCUGAUUUUGCAACAACUGGUGAAACGUCUCCUGGCGCACCUUUUUUU,Kd,[1],0.009 ± 0.0025 µM
malM-3'-6U (structured_RNA) RNA: GCUUUAUCAGCAGUGUAAAAGGCAAGGGGUAAUUACGCCCCACAGUGCUGAUUUUGCAACAACUGGUGCGUCUCCUGGCGCACCUUUUUU,Kd,[1],0.0078 ± 0.0012 µM
lpp-5'-mut (structured_RNA) RNA: GCUACAUGGAGAUUAACUCAAUCUAGAGGGUAUUAAUAAUGAAAGCUACUAAACUGGUACUGGGCGCGGUAAUCCCGCGCCCUUUU,Kd,[3],0.003 ± 0.0013 µM
cspE81-3' (structured_RNA) RNA: GGCCCUUCUGCUGCAAACGUAAUCGCUCUGUAAGAUACGUCAGCAAGAAUUCAAAACCCGCUUAAUCAGCGGGUUUUUUUU,Kd,[1],0.0076 ± 0.0045 µM
same,Kd,[2],0.047 ± 0.011 µM
cspE81-3'-AtoU (structured_RNA) RNA: GGCCCUUCUGCUGCAAACGUAAUCGCUCUGUAAGAUACGUCAGCAAGAAUUCUUUUCCCGCUUAAUCAGCGGGUUUUUUUU,Kd,[1],0.017 ± 0.0046 µM
malM-3'-4U (structured_RNA) RNA: GCUUUAUCAGCAGUGUAAAAGGCAAGGGGUAAUUACGCCCCACAGUGCUGAUUUUGCAACAACUGGUGCGUCUCCUGGCGCACCUUUU,Kd,[1],0.027 ± 0.011 µM
malM-3'-5U (structured_RNA) RNA: GCUUUAUCAGCAGUGUAAAAGGCAAGGGGUAAUUACGCCCCACAGUGCUGAUUUUGCAACAACUGGUGCGUCUCCUGGCGCACCUUUUU,Kd,[1],0.0097 ± 0.0015 µM
cspE-3' (structured_RNA) RNA: GUAAGAUACGUCAGCAAGAAUUCAAAACCCGCUUAAUCAGCGGGUUUUUUUU,Kd,[1],0.0045 ± 0.0015 µM
same,Kd,[3],0.013 ± 0.0045 µM
cspE-3'-AtoU (structured_RNA) RNA: GUAAGAUACGUCAGCAAGAAUUCUUUUCCCGCUUAAUCAGCGGGUUUUUUUU,Kd,[1],0.1 ± 0.051 µM
same,Kd,[2],0.0017 ± 0.00088 µM
hupB-3'-RtoU (structured_RNA) RNA: GGUAAACUAAGCGUUGUCCCCAGUGGGGAUGUGACGAAGUUCUUUGGCGCAUCUACUGAUGUGCCUUUUUU,Kd,[1],0.029 ± 0.0072 µM
same,Kd,[2],0.0019 ± 0.00075 µM
gapA-3'-AtoU (structured_RNA) RNA: GGACCUGAUCGCUCACAUCUCCAAAUAAGUUGAGAUGACACUGUGAUCUUUUUUGAGCGACUUCGGUCGCUCUUUUUUUU,Kd,[1],0.018 µM
malM-3'-AA (structured_RNA) RNA: GCUUUAUCAGCAGUGUAAAAGGCAAGGGGUAAUUACGCCCCACAGUGCUGAUUUUGCAACAACUGGUAAGUCUCCUGGCAAACCUUUUUUU,Kd,[1],0.0066 ± 0.0014 µM
malM-3'-AtoU (structured_RNA) RNA: GCUUUAUCAGCAGUGUAAAAGGCAAGGGGUAAUUACGCCCCACAGUGCUGAUUUUGCUUCUUCUGGUGCGUCUCCUGGCGCACCUUUUUUU,Kd,[1],0.005 ± 0.0018 µM
malM-3' (structured_RNA) RNA: GCUUUAUCAGCAGUGUAAAAGGCAAGGGGUAAUUACGCCCCACAGUGCUGAUUUUGCAACAACUGGUGCGUCUCCUGGCGCACCUUUUUUU,Kd,[1],0.012 ± 0.0048 µM
same,Kd,[3],0.012 ± 0.0053 µM
same,Kd,[2],0.022 ± 0.007 µM
malM-3'-UU (structured_RNA) RNA: GCUUUAUCAGCAGUGUAAAAGGCAAGGGGUAAUUACGCCCCACAGUGCUGAUUUUGCAACAACUGGUUUGUCUCCUGGCUUACCUUUUUUU,Kd,[1],0.0087 ± 0.0021 µM

# Reference: article PMC7367173
